Patent US20040267001A1, “Genes encoding baeyer-villiger monooxygenases” (priority 2001, published 2004)

Assay: Conversion of cyclohexanone to caprolactone by E. coli clones expressing Rhodococcus erythropolis AN12 monooxygenases, GC-MS detection
Type: cell-based, Escherichia coli
Details: 500 mg/L cyclohexanone, 0.1 mM IPTG, overnight at 24° C., GC-MS of ethylacetate extract
Procedure: Following amplification, the gene fragments were cloned into pTrcHis-TOPO TA vectors with either an N-terminal tail or C-terminal tail, as provided by the vector sequence. These vectors were transformed into E. coli, with transformants grown in Luria-Bertani broth supplemented with ampicillin (100 ug/ml).
The chnB monooxygenase activity of each expressed enzyme from Example 9 was tested for activity according to its ability to convert cyclohexanone to caprolactone.
Clones containing the full length monooxygenase genes were transferred from LB agar plate to 5 mL of M63 minimal media (GIBCO) containing 10 mM glycerol, 50 ug/mL ampicillin, 0.1 mM IPTG, and 500 mg/L cyclohexanone. In addition to the clones containing full length monooxygenases, a plasmid without an insert and a “no cell” control were also assayed. The encoded monooxygenase sequences were expressed upon addition of IPTG to the culture media. The cultures were incubated overnight at room temperature (24° C.). Samples (1.25 mL) for analysis were taken immediately after inoculation and after overnight incubation; cells were removed by centrifugation (4° C., 13,000 rpm).
Caprolactone formed by the action of the cloned monooxygenase was extracted from the aqueous phase with ethylacetate (1.0 ml aqueous/0.5 mL ethylacetate). Caprolactone was detected by gas chromotagraphy mass spectrometry (GC-MS) analysis, using an Agilent 6890 Gas chromatograph system.
The analysis of the ethylacetate phase was performed by injecting 1 uL of the ethyl acetate phase into the GC. The inlet temperature was 115° C. and the column temperature profile was 50° C. for 4 min and ramped to 250° C. at 20° C./min, for a total run time of 14 min. The compounds were separated with an Hewlet Packard HP-5MS (5% phenyl Methyl Siloxane) column (30 m length, 250 um diameter, and 0.25 um film thickness). The mass spectrometer was run in Electron Ionization mode. The background mass spectra was subtracted from the spectra at the retention time of caprolactone (9.857 min). Presence of caprolactone was confirmed by comparison of the test reactions to an authentic standard obtained from Aldrich Chemical Company (St. Louis, Mo.).
Results of these assays are shown below in Table 7, in terms of the presence or absence of detectable caprolactone formation according to the activity of each expressed BV monooxygenase enzyme.

B1: ORF 15: Rhodococcus erythropolis AN12 ORF 15 chnB monooxygenase, protein SEQ ID NO:36, expressed in E. coli (protein)
chain: MTIVTDLDRDHLRSAVLRGNVPTMLAVLLELTADERWVAPRYQPTRSRGMDDNSTGGLPEEVQSEIRSALIDAVERWWTLDEPSRRTLDSSEVERILNFTCSETVPPDFAPMMAEIVNGPQIKPATAKCDERLHAIVIGAGIAGMLASVELSRAGIPHVILEKNDDVGGSWWENRYPGAGVDTPSHLYSISSFPRNWSTHFGKRDEVQGYLEDFAEANDIRRNVRFRHEVTRAEFEESKQSWRVSVQRPGEASETLEAPILISAVGLLNRPKIPHLPGIETFRGRLFHSAEWPSELDDPESLRGKRVGIVGTGASAMQIGPAIADRVGSLTIFQRSPQWIAPNDDYFTTIDDGVHWLMDNIPGYREWYRARLSWIFNDKVYSSLQVDPDWPEPSASINATNHGHRKFYERYLRDQLGDRTDLIEASLPDYPPFGKRMLLDNGWFTMLRKPDVTLVPHGVDALTPSGLVDTNGVEHQLDVIVMATGFHSVRVLYPMDIVGRSGRSTGEIWGEHDARAYLGITVPDFPNFFVMTGPNTGLGHGGSFITILECQVRYIMDALKLMQSENLGAMECRAEVNDRYNEAVDRQHAQMVWTHPAMENWYRNPDGRVVSVLPWRINDYWAMTYRVDPSDFRTEPARSESVPTPTARG
modifications: Rhodococcus erythropolis AN12
  Formation of Caprolactone (ability to convert cyclohexanone to caprolactone): Not Detected
